Laboratory results as given in patent US20230416365A1 (Hoffmann-La Roche, published 2023).
Positions count from the first letter of the chain named.

T1: Hu N(A2-B2)A-avi-His (human, biotinylated at the avi tag (Example 2.2))
T1 construct: also called hu N(A2-B2)A-avi-His B; CEACAM5-based antigen
T1 chain: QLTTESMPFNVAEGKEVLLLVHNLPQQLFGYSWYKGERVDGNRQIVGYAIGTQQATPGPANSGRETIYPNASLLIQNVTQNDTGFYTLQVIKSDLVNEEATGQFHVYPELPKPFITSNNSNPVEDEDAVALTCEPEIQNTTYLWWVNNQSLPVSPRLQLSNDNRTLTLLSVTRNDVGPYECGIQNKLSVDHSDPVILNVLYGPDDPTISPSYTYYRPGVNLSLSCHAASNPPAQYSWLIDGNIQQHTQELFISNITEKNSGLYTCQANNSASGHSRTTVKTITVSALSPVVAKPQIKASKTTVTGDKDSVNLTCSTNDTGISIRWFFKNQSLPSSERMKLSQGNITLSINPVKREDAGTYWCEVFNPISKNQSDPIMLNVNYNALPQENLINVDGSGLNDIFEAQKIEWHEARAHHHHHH

T2: N(A2B2)A-avi-His (biotinylated at the avi tag)
T2 construct: also called biotinylated N(A2B2)A-avi-His
T2 chain: T1 chain

B1: CEA (A5B7) Fab (parental murine antibody) (Fab, V domains shown)
VH: EVKLVESGGGLVQPGGSLRLSCATSGFTFTDYYMNWVRQPPGKALEWLGFIGNKANGYTTEYSASVKGRFTISRDKSQSILYLQMNTLRAEDSATYYCTRDRGLRFYFDYWGQGTTLTVSS
VL: QTVLSQSPAILSASPGEKVTMTCRASSSVTYIHWYQQKPGSSPKSWIYATSNLASGVPARFSGSGSGTSYSLTISRVEAEDAATYYCQHWSSKPPTFGGGTKLEIK
notes: Fab; also called P1AE0289
B2: Fab derived from P1AE2166 (Fab, V domains shown)
VH: EVQLLESGGGLVQPGGSLRLSCAASGFTFTDYYMNWVRQAPGKGLEWLGFIGNKANGYTTEYSASVKGRFTISRDKSKNTLYLQMNSLRAEDTATYYCTRDRGLRFYFDYWGQGTTVTVSS
VL: EIVLTQSPATLSLSPGERATLSCRASSSVTYIHWYQQKPGSSPKSWIYATSNLASGIPARFSGSGSGTDFTLTISSLEPEDFAVYYCQHWSSKPPTFGQGTKLEIK
notes: Fab; also called P1AE4137
B3: Fab derived from P1AE2164 (Fab, V domains shown)
VH: B2 VH
VL: B2 VL with E1Q, I2T, F70Y
notes: Fab; also called P1AE4135
B4: Fab derived from P1AE2165 (Fab, V domains shown)
VH: B2 VH
VL: B2 VL with E1Q, I2T, S41Q, S42A, K44R, S45L, W46L
notes: Fab; also called P1AE4136
B5: Fab derived from P1AE2167 (Fab, V domains shown)
VH: B2 VH
VL: B2 VL with S41Q, S42A, K44R
notes: Fab; also called P1AE4138
B6: Fab derived from P1AE2176 (Fab, V domains shown)
VH: B2 VH with L48V, K76N, T95V
VL: B2 VL
notes: Fab; also called P1AE4139
B7: Fab derived from P1AE2177 (Fab, V domains shown)
VH: B2 VH with L48V, K76N, T95V
VL: B2 VL with S41Q, S42A, K44R
notes: Fab; also called P1AE4140
B8: Fab derived from P1AE2179 (Fab, V domains shown)
VH: B2 VH with L48V, T95V, T99A
VL: B2 VL with E1Q, I2T, F70Y
notes: Fab; also called P1AE4141
B9: Fab derived from P1AE2181 (Fab, V domains shown)
VH: B2 VH with L48V, T95V, T99A
VL: B2 VL
notes: Fab; also called P1AE4142
B10: Fab derived from P1AE2182 (Fab, V domains shown)
VH: B2 VH with L48V, T95V, T99A
VL: B2 VL with S41Q, S42A, K44R
notes: Fab; also called P1AE4143
B11: bispecific CEA (A5H1EL1D)-CD28 (SA Variant 15) 1+1 IgG of Example 10.3 (bispecific antibody)
heavy 1: EVQLLESGGGLVQPGGSLRLSCAASGFTFTDYYMNWVRQAPGKGLEWLGFIGNKANAYTTEYSASVKGRFTISRDKSKNTLYLQMNSLRAEDTATYYCTRDRGLRFYFDYWGQGTTVTVSSASTKGPSVFPLAPSSKSTSGGTAALGCLVKDYFPEPVTVSWNSGALTSGVHTFPAVLQSSGLYSLSSVVTVPSSSLGTQTYICNVNHKPSNTKVDKKVEPKSCDKTHTCPPCPAPEAAGGPSVFLFPPKPKDTLMISRTPEVTCVVVDVSHEDPEVKFNWYVDGVEVHNAKTKPREEQYNSTYRVVSVLTVLHQDWLNGKEYKCKVSNKALGAPIEKTISKAKGQPREPQVCTLPPSRDELTKNQVSLSCAVKGFYPSDIAVEWESNGQPENNYKTTPPVLDSDGSFFLVSKLTVDKSRWQQGNVFSCSVMHEALHNHYTQKSLSLSP
light 1: EIVLTQSPATLSLSPGERATLSCRASSSVTYIHWYQQKPGQAPRSWIYATSNLASGIPARFSGSGSGTDFTLTISSLEPEDFAVYYCQHWSSKPPTFGQGTKLEIKRTVAAPSVFIFPPSDEQLKSGTASVVCLLNNFYPREAKVQWKVDNALQSGNSQESVTEQDSKDSTYSLSSTLTLSKADYEKHKVYACEVTHQGLSSPVTKSFNRGEC
heavy 2: not shown
light 2: not shown
notes: knob-into-hole, crossmab, PG-LALA
B12: bispecific CEA (P005.102)-CD28 (SA Variant 15) 1+1 IgG (bispecific antibody)
heavy 1: EIVLTQSPATLSLSPGERATLSCRASSSVTYIHWYQQKPGQAPRSWIYATSNLASGIPARFSGSGSGTDFTLTISSLEPEDFAVYYCQHWSSKSPTFGQGTKLEIKSSASTKGPSVFPLAPSSKSTSGGTAALGCLVKDYFPEPVTVSWNSGALTSGVHTFPAVLQSSGLYSLSSVVTVPSSSLGTQTYICNVNHKPSNTKVDKKVEPKSCDKTHTCPPCPAPEAAGGPSVFLFPPKPKDTLMISRTPEVTCVVVDVSHEDPEVKFNWYVDGVEVHNAKTKPREEQYNSTYRVVSVLTVLHQDWLNGKEYKCKVSNKALGAPIEKTISKAKGQPREPQVCTLPPSRDELTKNQVSLSCAVKGFYPSDIAVEWESNGQPENNYKTTPPVLDSDGSFFLVSKLTVDKSRWQQGNVFSCSVMHEALHNHYTQKSLSLSP
light 1: EVQLLESGGGLVQPGGSLRLSCAASGFTFTDYYMNWVRQAPGKGLEWLGFIGNKANAYTTEYSASVKGRFTISRDKSKNTLYLQMNSLRAEDTATYYCTRDRGIRFQFDYWGQGTTVTVSSASVAAPSVFIFPPSDEQLKSGTASVVCLLNNFYPREAKVQWKVDNALQSGNSQESVTEQDSKDSTYSLSSTLTLSKADYEKHKVYACEVTHQGLSSPVTKSFNRGEC
heavy 2: not shown
light 2: not shown
notes: as for B11
B13: bispecific CEA (P001.177)-CD28 (SA Variant 15) 1+1 IgG (bispecific antibody)
heavy 1: B12 heavy 1 with S94P
light 1: B12 light 1 with T28Y, G52S, I104L, Q107Y
heavy 2: not shown
light 2: not shown
notes: as for B11
B14: bispecific CEA (P002.139)-CD28 (SA Variant 15) 1+1 IgG (bispecific antibody)
heavy 1: B12 heavy 1 with R24H, S94P
light 1: B12 light 1 with T28Y, Y33A, F50V, G52S, I104L, Q107Y
heavy 2: not shown
light 2: not shown
notes: as for B11
B15: bispecific CEA (P005.097)-CD28 (SA Variant 15) 1+1 IgG (bispecific antibody)
heavy 1: B12 heavy 1 with K93Q, S94P
light 1: B12 light 1 with I104L, Q107S
heavy 2: not shown
light 2: not shown
notes: as for B11
B16: bispecific CEA (P005.102-combo1)-CD28 (SA Variant 15) 1+1 IgG (bispecific antibody)
heavy 1: B12 heavy 1
light 1: B12 light 1 with T28Y, F50V, G52S
heavy 2: not shown
light 2: not shown
notes: as for B11
B17: bispecific CEA (P005.102-combo2)-CD28 (SA Variant 15) 1+1 IgG (bispecific antibody)
heavy 1: B12 heavy 1
light 1: B12 light 1 with T28Y, T30S, F50V, G52S
heavy 2: not shown
light 2: not shown
notes: as for B11
B18: bispecific CEA (P005.103)-CD28 (SA Variant 15) 1+1 IgG (bispecific antibody)
heavy 1: B12 heavy 1 with K93I
light 1: B12 light 1 with Q107Y
heavy 2: not shown
light 2: not shown
notes: as for B11
B19: bispecific CEA (P005.103-combo1)-CD28 (SA Variant 15) 1+1 IgG (bispecific antibody)
heavy 1: B12 heavy 1 with K93I
light 1: B12 light 1 with Q107S
heavy 2: not shown
light 2: not shown
notes: as for B11
B20: bispecific CEA (P005.103-combo2)-CD28 (SA Variant 15) 1+1 IgG (bispecific antibody)
heavy 1: B12 heavy 1 with K93I
light 1: B12 light 1 with T28Y, F50V, G52S, Q107S
heavy 2: not shown
light 2: not shown
notes: as for B11
B21: bispecific CEA (P006.038)-CD28 (SA Variant 15) 1+1 IgG (bispecific antibody)
heavy 1: B12 heavy 1 with K93V, S94P
light 1: B12 light 1 with Q107G
heavy 2: not shown
light 2: not shown
notes: as for B11
B22: bispecific CEA (P006.038-combo1)-CD28 (SA Variant 15) 1+1 IgG (bispecific antibody)
heavy 1: B12 heavy 1 with K93V, S94P
light 1: B12 light 1 with T28Y, Y33A, F50V, G52S, Q107G
heavy 2: not shown
light 2: not shown
notes: as for B11
B23: bispecific CEA (P006.038-combo2)-CD28 (SA Variant 15) 1+1 IgG (bispecific antibody)
heavy 1: B12 heavy 1 with K93V, S94P
light 1: B12 light 1 with T30S, Y33E, G52S, Q107G
heavy 2: not shown
light 2: not shown
notes: as for B11
B24: CEA (A5H1EL1D)-CD28 (SA_Variant 29) 1+1 format (Molecule 11D) (bispecific antibody, human IgG1, kappa, L234A L235A)
heavy 1: B12 heavy 1 with S94P
light 1: B12 light 1 with I104L, Q107Y
heavy 2: not shown
light 2: not shown
notes: huIgG1 PG-LALA CrossFab; also called P1AE4776
B25: CEA (A5H1EL1D)-CD28 (SA_Variant 8) 1+1 format (Molecule 11B) (bispecific antibody, human IgG1, kappa, L234A L235A)
heavy 1: B12 heavy 1 with S94P
light 1: B12 light 1 with I104L, Q107Y
heavy 2: not shown
light 2: not shown
notes: huIgG1 PG-LALA CrossFab; also called P1AE4774

Target: T1, Hu N(A2-B2)A-avi-His
Experiment: SPR, Biacore T200, antigen amine-coupled on CM5, Fab as analyte
Source text: Data were double-referenced against the unimmobilized flow cell 1 and a zero concentration of the analyte. The sensorgrams of the analytes were fitted to a simple 1:1 Langmuir interaction model.

Row | Binder | Kd
1 | B1 | 0.559 nM
2 | B2 | 11.3 nM
3 | B3 | 1.7 nM
4 | B4 | 1.25 nM
5 | B5 | 1.47 nM
6 | B6 | 7.58 nM
7 | B7 | 7.62 nM
8 | B8 | 1.83 nM
9 | B9 | 2.64 nM
10 | B10 | 2.92 nM

Target: T2, N(A2B2)A-avi-His
Experiment: SPR, ProteOn, antigen on NLC chip, bispecific IgG as analyte
Procedure: About 2000, 1000, 500, and 250 RU of biotinylated N(A2B2)A-avi-His were immobilized on 4 channels of a Streptavidin-coated NLC chip in vertical orientation. As a control for non-specific binding, 2000 RU of biotinylated NA(B2)A-avi-His protein was immobilized on channel 5. For the determination of the affinity (KD) of the purified bispecific constructs, injection direction was changed to horizontal orientation. […] Buffer (PBST) was injected along the sixth channel to provide an “in-line” blank for referencing. Regeneration was performed with 10 mM glycine pH 1.5 for 20 s at 50 ul/min (vertical orientation).
Association rate constants (kon) and dissociation rate constants (koff) were calculated using a simple one-to-one Langmuir binding model in ProteOn Manager v3.1 software by simultaneously fitting the association and dissociation sensorgrams. The equilibrium dissociation constant (KD) was calculated as the ratio koff/kon.

Row | Binder | Kd | koff | kon
11 | B11 | 2.11 nM | 0.000333 s⁻¹ | 158000 M⁻¹ s⁻¹
12 | B12 | 0.2 nM | 3.31e-05 s⁻¹ | 160000 M⁻¹ s⁻¹
13 | B13 | 0.43 nM | 8.83e-05 s⁻¹ | 205000 M⁻¹ s⁻¹
14 | B14 | 0.39 nM | 9.7e-05 s⁻¹ | 249000 M⁻¹ s⁻¹
15 | B15 | 0.33 nM | 8.87e-05 s⁻¹ | 269000 M⁻¹ s⁻¹
16 | B16 | 0.06 nM | 1.23e-05 s⁻¹ | 207000 M⁻¹ s⁻¹
17 | B17 | 0.08 nM | 1.85e-05 s⁻¹ | 225000 M⁻¹ s⁻¹
18 | B18 | 0.44 nM | 0.000112 s⁻¹ | 257000 M⁻¹ s⁻¹
19 | B19 | 0.27 nM | 3.42e-05 s⁻¹ | 126000 M⁻¹ s⁻¹
20 | B20 | 0.09 nM | 1.05e-05 s⁻¹ | 123000 M⁻¹ s⁻¹
21 | B21 | 0.22 nM | 5.87e-05 s⁻¹ | 267000 M⁻¹ s⁻¹
22 | B22 | 4.48 nM | 0.000799 s⁻¹ | 178000 M⁻¹ s⁻¹
23 | B23 | 3.66 nM | 0.000698 s⁻¹ | 191000 M⁻¹ s⁻¹

Target: T3, biotinylated huCD28-Fc (dimeric CD28-Fc construct with a monovalent biotinylated avi-tag) (human, UniProt P10747 19-152, biotinylated at the C-terminal avi tag)
T3 construct: not shown: hum IgG1 Fc fragment with hole and PG-LALA mutations; hum IgG1 Fc fragment with knob and PG-LALA mutations
Experiment: SPR, ProteOn XPR36, huCD28-Fc immobilised, bispecific as analyte

Row | Binder | Kd | koff | kon
24 | B24 | 1.2 nM | 0.000324 s⁻¹ | 271000 M⁻¹ s⁻¹
25 | B25 | 58 nM | 0.0098 s⁻¹ | 169000 M⁻¹ s⁻¹
